In patent US12649778:

Target: Peptide 1593 (…) (Mycobacterium tuberculosis)
Experiment: SPR (Biacore), IgG amine-coupled, peptide as analyte

B1: 65D3 mutant IgG variant 2 (S55W-VH + S57T-VL) (antibody)
heavy: QSLEESGGRLVTPGGSLTLTCTVSGFSLSTHDISWVRQAPGKGLEWIGVIARRGWTYYASWAKGRFTISKTSTTVDLKITSPTIEDTATYFCAREEFDFWGQGTLVTVSSGQPKAPSVFPLAPCCGDTPSSTVTLGCLVKGYLPEPVTVTWNSGTLTNGVRTFPSVRQSSGLYSLSSVVSVTSSSQPVTCNVAHPATNTKVDKTVAPSTCSKPTCPPPELLGGPSVFIFPPKPKDTLMISRTPEVTCVVVDVSQDDPEVQFTWYINNEQVRTARPPLREQQFNSTIRVVSTLPIAHQDWLRGKEFKCKVHNKALPAPIEKTISKARGQPLEPKVYTMGPPREELSSRSVSLTCMINGFYPSDISVEWEKNGKAEDNYKTTPAVLDSDGSYFLYSKLSVPTSEWQRGDVFTCSVMHEALHNHYTQKSISRSPGK
light: AVLTQTASPVSAAVGGTVTISCQSSQSVYNNKELSWFQQKPGQPPKLLISYASTLATGVPSRFKGSGSGTQFTLTISDLECDDAATYYCLGGYASTIDMWAFGGGTEVVVKGDPVAPTVLIFPPAADQVATGTVTIVCVANKYFPDVTVTWEVDGTTQTTGIENSKTPQNSADCTYNLSSTLTLTSTQYNSHKEYTCKVTQGTTSVVQSFNRGDC
Kd: 3.27 nM | koff: 0.000393 s⁻¹ | kon: 120000 M⁻¹ s⁻¹
